Data as given in publication PMC3316577.

Key:
[1] = target: CBFβ140-His (residues 1-140 of CBFβ with six histidine residues at the N-terminus) (human) (UniProt Q13951); test: SEC
[2] = target: His-tagged CBFβ187 (mouse CBFβ, residues 1-187) (mouse) (UniProt Q08024); test: SEC
[3] = target: CBFβ140-His (residues 1-140 of CBFβ with six histidine residues at the N-terminus) (human) (UniProt Q13951); test: SEC; Vif-CBFβ complexes co-expressed and purified by nickel affinity, Superdex 200 10/300 GL, 20 mM Tris-HCl pH 8.0, 150 mM NaCl, 10% glycerol; peak fractions by SDS-PAGE and Coomassie staining

Chain of UniProt Q13951 (Q13951 1-140): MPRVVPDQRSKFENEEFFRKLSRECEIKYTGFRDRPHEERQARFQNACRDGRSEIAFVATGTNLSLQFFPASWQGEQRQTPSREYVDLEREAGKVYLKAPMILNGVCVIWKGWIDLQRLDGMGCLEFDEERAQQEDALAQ
Chain of UniProt Q08024 (Q08024 whole entry, the tested form may be a part): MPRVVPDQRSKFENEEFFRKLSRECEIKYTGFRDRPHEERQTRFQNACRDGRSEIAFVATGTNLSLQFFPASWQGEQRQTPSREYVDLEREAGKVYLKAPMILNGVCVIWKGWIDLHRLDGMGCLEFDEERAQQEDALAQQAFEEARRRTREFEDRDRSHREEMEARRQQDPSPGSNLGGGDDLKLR

| Substance | stoichiometry N [1] | stoichiometry N [2] | stoichiometry N [3] |
| --- | --- | --- | --- |
| Elongin B / Elongin C (residues 17 to 112) (from UniProt Q15370 1-118; Q15369 17-112) (complex) | 1 | 1 | – |
| full-length HIV-1 Vif (residues 1-192) (from UniProt P12504) (natural protein) | 1 | 1 | 1 |
| truncated HIV-1 Vif140 (residues 1-140) (from UniProt P12504 1-140) (domain or fragment) | – | – | 1 |
| truncated HIV-1 Vif176 (residues 1-176) (from UniProt P12504 1-176) (domain or fragment) | – | – | 1 |
